2 substances from patent US20230128075A1 can be followed below.

The target of assay [1] is HSP70 (antigen; source and nucleotide state not stated) (Homo sapiens (Human)) (UniProt P0DMV8). Description: Octet epitope binning, sandwich format on HSP70; table row C92F3-5, column C92F3-5 (self pair). In general terms: In BLI a coated tip is dipped into the sample, and binding shifts an interference pattern.
Assay [2] has the same target. Description: Octet epitope binning, sandwich format on HSP70; table row m77A (named as competitor), column C92F3-5; the sheet does not say which of row and column was loaded first.
For assay [3] the target is unchanged. Description: Octet epitope binning, sandwich format on HSP70; table row N15F2-5 (named as competitor), column C92F3-5; the sheet does not say which of row and column was loaded first.
Assay [4] has the same target. Description: Octet epitope binning, sandwich format on HSP70; table row N15F2-5, column N15F2-5 (self pair).
Assay [5] has the same target. Description: Octet epitope binning, sandwich format on HSP70; table row m77A (named as competitor), column N15F2-5; the sheet does not say which of row and column was loaded first.
For assay [6] the target is unchanged. Description: Octet epitope binning, sandwich format on HSP70; table row C92F3-5 (named as competitor), column N15F2-5; the sheet does not say which of row and column was loaded first.

Chain of HSP70 (antigen; source and nucleotide state not stated) (Homo sapiens (Human)) (P0DMV8 whole entry): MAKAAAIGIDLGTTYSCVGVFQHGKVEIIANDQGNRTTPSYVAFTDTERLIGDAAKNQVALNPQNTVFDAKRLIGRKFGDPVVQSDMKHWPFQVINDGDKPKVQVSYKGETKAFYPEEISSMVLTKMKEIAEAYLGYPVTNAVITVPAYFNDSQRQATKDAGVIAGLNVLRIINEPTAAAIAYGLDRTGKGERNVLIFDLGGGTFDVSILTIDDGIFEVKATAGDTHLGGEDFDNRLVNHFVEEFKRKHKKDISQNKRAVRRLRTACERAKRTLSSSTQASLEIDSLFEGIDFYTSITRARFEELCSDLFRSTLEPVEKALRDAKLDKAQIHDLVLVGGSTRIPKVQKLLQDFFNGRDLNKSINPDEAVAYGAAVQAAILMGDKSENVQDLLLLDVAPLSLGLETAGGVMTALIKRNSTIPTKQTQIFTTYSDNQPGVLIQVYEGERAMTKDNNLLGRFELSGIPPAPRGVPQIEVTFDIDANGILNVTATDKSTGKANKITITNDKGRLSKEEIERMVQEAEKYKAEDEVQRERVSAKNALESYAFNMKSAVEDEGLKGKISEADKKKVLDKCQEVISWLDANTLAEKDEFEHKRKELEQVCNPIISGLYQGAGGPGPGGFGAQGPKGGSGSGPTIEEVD

For C92F3-5 (Fisher Scientific) (antibody), the percent of maximal binding in the presence of the potentially competing antibody amounted to 0 in assay [1], 0.714 in assay [2] and 0.492 in assay [3].

For N15F2-5 (Enzo Life Sciences) (antibody), the results for the percent of maximal binding in the presence of the potentially competing antibody in assay [4], in assay [5] and in assay [6] were 0, 0.738 and 0.489, respectively.
